Experimental data published in patent US20240189443A1, “PD-L1 AND TLR7 DOUBLE-TARGETING NANOBODY COUPLING DRUG AND USE THEREOF IN ANTI-TUMOR” (SHANGHAI INSTITUTE OF MATERIA MEDICA, CHINESE ACADEMY OF …, priority 2021, published 2024).
Changes are numbered by the printed parent chain. “And” between values parts separate entries of the source, which are not always exact repeats. Equal entries are not always repeated.

Legend:
mPD-L1-Fc fusion protein [1] = biological target: T1, mPD-L1-Fc fusion protein (mouse; human, UniProt Q9EP73 19-239); assay: ELISA, coated mPD-L1-Fc, anti-mouse HRP detection
T1 construct: extracellular domain; also called Mouse PD-L1 (ECD)-pFUSE-hIgG1-Fc; not shown: Fc of human IgG1 from vector pFUSE-hIgG1-Fc
Description: Coating the plate with mPD-L1-Fc fusion protein at 4° C. overnight, then the plate was sealed with BSA at 37° C. for 2 hours, Nb 16 nanobodies of different concentrations were added in each hole, reacted at room temperature for 1 hour, and the plate were washed and goat anti-mouse horseradish peroxidase labeled antibody was added, and reacting at room temperature for 1 hour. After washing, a color developing solution was added, and an absorption value was read at a wavelength of 450 nm.

mPD-L1-Fc fusion protein [2] = biological target: T1, mPD-L1-Fc fusion protein; assay: competition ELISA, coated mPD-L1-Fc, 10 µg/mL mouse PD-1-Fc-Biotin, SA-HRP detection
Description: (§1) Coating the plate with mPD-L1-Fc fusion protein at 4° C. overnight, then the plate was sealed with BSA at 37° C. for 2 hours, Nb16 nanobodies of different concentrations and 10 μg/mL mouse PD-1-Fc-Biotin fusion protein were added in each hole., After reacting at room temperature for 1 hour, the plate was washed and antibody SA-HRP was added, and the plate reacted at room temperature for 1 hour. After washing, a color developing solution was added, and an absorption value was read at a wavelength of 450 nm.

[3] = biological target: T2, mouse PD-L1 on cell strain HEK293T/mPD-L1 (mouse, UniProt Q9EP73 19-290); assay: flow cytometry on HEK293T/mPD-L1, anti-mouse IgG Fc (PE)
T2 construct: whole, on cells

[4] = test system: induced high-expression PD-L1 CT26 tumor cell; assay: Combined anti-tumor effect of Nb16 and SZU-101, IFN-γ-induced CT26 subcutaneous tumor model; assay type: in vivo, BALB/c mouse; conditions: Nb16 10 mg/kg intraperitoneal, SZU-101 3 mg/kg peritumoral
Description: The mouse CT26 tumor cells were recovered and passaged, it was ensured that tumor cells at least have been subjected to 3 generations during tumor-bearing, and mouse IFN-γ with a final concentration of 100 ng/mL was used to induce tumor cells for 24 h before tumor-bearing, so that the cell surface thereof highly expresses PD-L1; the induced high-expression PD-L1 CT26 tumor cell was inoculated subcutaneously into a female BALB/c mouse, wherein the inoculation amount was 1×10^6 cells/one; and randomly grouping mice into four groups (9 per group), i.e., a same-type control group (mFc), a nano-antibody Nb16 group (Nb16), a TLR7 agonist SZU-101 group (SZU-101) and a combined treatment group (NB16/SZU-101), wherein the administration amount of the mFc and the Nb16 was 10 mg/kg, and intraperitoneal administration was performed; and the administration amount of the SZU-101 was 3 mg/kg, and the tumor was administered circumferentially. The administration cycle were Nb16 administered on D1, D5, D9, D12, and D14 and SZU-101 administered on D9-D14 (3A). The body weight of the mouse and the tumor major diameter (L) and the short diameter (W) in the administration cycle were observed and recorded until the anatomical endpoint, and the tumor volume V=(L×W×W)/2 was calculated, a tumor growth curve was drawed, and the tumor inhibition rate was calculated; and the experiment was terminated on the fifteenth day. After performing euthanasia, the animal was dissected, and the subcutaneous tumor was taken out.

[5] = test system: IFN-γ-induced high-expression PD-L1 CT26; assay: IFN-γ-induced high-expression PD-L1 CT26 subcutaneous tumor-bearing model, conjugate vs combined administration; assay type: in vivo, BALB/c mouse; conditions: Day 14, Nb16 or Nb16-SZU-101 10 mg/kg, SZU-101 0.5 mg/kg, intraperitoneal, 4 doses
Description: In an IFN-γ-induced high-expression PD-L1 CT26 subcutaneous tumor-bearing BALB/c mouse model, mice were randomly divided into four groups, namely an mFc group, an Nb16 group, an Nb16/SZU-101 combined administration group and an NB16-SZU-101 nanobody conjugate drug group, wherein the administration dosage of the mFc or Nb 16 or Nb16-SZU-101 was 10 mg/kg, the administration mode was intraperitoneal administration, the administration dosage of the SZU-101 was 0.5 mg/kg, and the administration mode was intraperitoneal administration; the drug was administered on Day 2, Day 6, Day 10 and Day 13 for a total of 4 times. Tumor sizes were measured 2-3 times per week, and tumor growth curves were drawn; and anatomical weighing and photographing were performed on mice at Day 14.

PD-1/PD-L1 = PD-1/PD-L1 (Mus musculus, UniProt Q9EP73); assay: ELISA PD-1/PD-L1 blocking activity assay of nanobody Nb16; assay type: binding; parameters: A Mouse PD-L1 (ECD)-pFUSE-hIgG1-Fc vector is constructed; made in house; host or cells: HEK293F (PD-L1-Fc)
Description: as §1

HEK293T/hPD-L1 = biological target: T3, HEK293T/hPD-L1 (Homo sapiens, UniProt Q9NZQ7); assay: Human PD-L1 binding activity assay of candidate anti-human PD-L1 nanobodies (flow cytometry); conditions: nanobody 10 μg/mL
T3 construct: expressed in transfected cells; host or cells: HEK293T
Description: The cell strain HEK293T/hPD-L1 was digested, and centrifugationwas performed to remove the supernatant; the cells were washed one time with PBS and the cell density was adjusted to 2.5×10^6 cells/mL; each cell sample was added to a 100 μL cell suspension, that is, a 2.5×10^5 cell/sample was comprised; different anti-human PD-L1 candidate nanobodies (the concentration is 10 μg/mL) were respectively added to the samples; incubating for 20 min at 4° C.; centrifuging, removing supernatant, and the cells were washing once with PBS; using diluted antibody anti-human IgG Fc (FITC) as secondary antibody, and the cells were re-suspended; incubating at 4° C. for 20 min; centrifuging, removing supernatant, the cells were washing twice with PBS, and transferred to a flow tube; and was performed on-machine detection by using a flow cytometer to obtain the binding activity of the candidate nanobody and human PD-L1, as shown in FIG. 13.

[6] = biological target: T4, human PD-1/PD-L1 (HEK293T/hPD-L1) (Homo sapiens, UniProt Q9NZQ7); assay: Human PD-1/PD-L1 blocking activity assay of candidate anti-human PD-L1 nanobodies (flow cytometry); assay type: binding; conditions: nanobody 10 μg/mL, human PD-1-his 1 μg/mL
T4 construct: expressed in transfected cells; host or cells: HEK293T
Description: The cell strain HEK293T/hPD-L1 was digested, and centrifugationwas performed to remove the supernatant; the cells were washed one time with PBS and the cell density was adjusted to 2.5×10^6 cells/mL; each cell sample was added to a 100 μL cell suspension, that is, a 2.5×10^5 cell/sample was comprised; and the human PD-1-his protein (the concentration was 1 μg/mL) and the anti-human PD-L1 candidate nanobody (the concentration was 10 μg/mL) were respectively added to the sample; the cells were incubated for 20 min at 4° C.; centrifuging, supernatant was removed, and the cells were washed once with PBS; using diluted antibody anti-his-APC as secondary antibody, and the cells were re-suspended; incubated at 4° C. for 20 min; centrifuging, supernatant was removed, the cells were washedtwice with PBS, and was transferred to a flow tube; and was performed on-machine detection by using a flow cytometer to obtain the PD-1/PD-L1 blocking activity of the candidate nanobody, as shown in FIG. 14.

human PD-L1 = human PD-L1 (Homo sapiens, UniProt Q9NZQ7); assay: CDR affinity maturation of anti-human PD-L1 nanobodies, affinity compared with original antibody; assay type: binding; conditions: relative to original antibody h_Nb1 VHH or h_Nb2 VHH
Description: Wherein, the original antibody corresponding to the sequence shown in SEQ ID NO.92-106 is h_Nb1 VHH (SEQ ID NO.21); and the original antibody corresponding to the sequence shown in SEQ ID NO.107 -117 is h_Nb2 VHH (SEQ ID NO.25).

T1 sequence (Q9EP73 19-239 limits assumed): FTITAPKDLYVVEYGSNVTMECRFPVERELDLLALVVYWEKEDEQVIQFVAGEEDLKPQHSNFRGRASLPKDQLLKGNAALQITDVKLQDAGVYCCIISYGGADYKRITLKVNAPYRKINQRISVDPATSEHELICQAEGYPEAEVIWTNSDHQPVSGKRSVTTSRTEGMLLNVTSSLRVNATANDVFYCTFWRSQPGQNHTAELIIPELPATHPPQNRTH
T4 sequence (Q9NZQ7 19-290): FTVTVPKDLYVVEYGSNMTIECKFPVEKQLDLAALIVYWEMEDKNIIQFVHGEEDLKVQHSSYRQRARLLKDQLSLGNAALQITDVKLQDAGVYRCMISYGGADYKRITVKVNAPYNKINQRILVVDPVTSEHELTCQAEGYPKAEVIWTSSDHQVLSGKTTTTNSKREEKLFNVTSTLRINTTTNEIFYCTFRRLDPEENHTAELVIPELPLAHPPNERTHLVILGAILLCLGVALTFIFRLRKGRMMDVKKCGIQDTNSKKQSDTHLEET
T3 sequence (Q9NZQ7 19-290): as above
Chain of PD-1/PD-L1 (Q9EP73 19-239 limits assumed): as the sequence (Q9EP73 19-239 limits assumed) above
T2 sequence (Q9EP73 19-290): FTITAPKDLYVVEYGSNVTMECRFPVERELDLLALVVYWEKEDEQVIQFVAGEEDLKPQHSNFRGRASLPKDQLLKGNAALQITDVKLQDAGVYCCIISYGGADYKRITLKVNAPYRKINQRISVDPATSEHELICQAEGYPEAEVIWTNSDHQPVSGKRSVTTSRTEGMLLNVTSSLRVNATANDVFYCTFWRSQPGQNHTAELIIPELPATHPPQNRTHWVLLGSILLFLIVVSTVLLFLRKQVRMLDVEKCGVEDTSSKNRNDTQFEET
Chain of human PD-L1 (Q9NZQ7 19-290): as the sequence (Q9NZQ7 19-290) above

B1: nanobody Nb16 (Fc fusion)
chain: QVQLQESGGGSVQAGGSLRLSCAASGYTDRNYWMGWFRQAPGKEREGVAALYTRTGSTYYADSVKGRFTISHDNAKNTLYLQMNSLKPEDTAVYYCAADSNAYGLAPLHHYWGQGTQVTVSS
notes: also called bare anti-Nb16; original PD-L1 nanobody; not shown: Fc of mouse IgG2b from vector pFUSE-mIgG2b-Fc
B1 was tested, and the EC50 (mPD-L1-Fc fusion protein [1]) was 0.045 µg/mL and the IC50 (mPD-L1-Fc fusion protein [2]) was 1.02 µg/mL.

B2: PD-L1 and TLR7 double-targeting nanobody coupling drug Nb16-SZU-101 (Fc fusion)
chain: B1 chain
modifications: TLR7 agonist SZU-101 coupled through SZU-101-NHS active ester to amino groups, sites not given; coupling degree 4.5
notes: not shown: Fc of mouse IgG2b from vector pFUSE-mIgG2b-Fc
B2: binds [3].

B3: Nb16: anti-PD-L1 nanobody, VHH sequence SEQ ID NO: 1, expressed as Fc fusion (protein)
chain: B1 chain
modifications: left off: a dimerising Fc or GST
B3 was tested, and the “Anti-tumor effect” value [4] was “significantly inhibit tumor growth”, the Tumor inhibitory rate ([4]; day 15) was 35% and the “Endpoint tumor Weight” value ([4]; individual mice, day 15) was 0.806 g and 0.505 g and 0.460 g and 0.450 g and 0.250 g and 0.381 g and 0.664 g and 0.361 g and 0.418 g. For the same molecule, the Tumor inhibitory rate [5] was 30%, the “Endpoint tumor Weight” value ([5]; individual mice) was 0.263 g and 0.591 g and 0.342 g and 0.334 g and 0.494 g and 0.442 g and the “Blocking of PD-1/PD-L1 binding” value (PD-1/PD-L1) was “effectively blocked”.

B4: h_Nb1: anti-human PD-L1 nanobody, VHH SEQ ID NO: 21 (protein)
VHH: DVQLQESGGGLVQPGGSLRLSCAASGFTFSSYAMSWVRQAPGKGLEWVSDINSGGDNTDYADSVKGRFTISRDNAKNTLYLQMNSLKPEDTAVYYCARGPKLCFSSWGQGTQVTVSS
modifications: h_Nb1 Amino acid sequence of VHH
For B4, the “Binding activity with human PD-L1” value (HEK293T/hPD-L1) was “good binding activity” and the “Blocking of human PD-1/PD-L1 binding” value [6] was “effectively block”.

B5: h_Nb2: anti-human PD-L1 nanobody, VHH SEQ ID NO: 25 (protein)
VHH: DVQLQESGGGLVQPGGSLRLSCAASGFTFGDRWMYWLRQAPGKGLEWVSSINPAGRSTYYADSVKGRFTISRDNAKNTLYLQMNSLKSEDTAVYYCTKDPGGYQKGQGTQVTVSS
modifications: h_Nb2 Amino acid sequence of VHH
In the case of B5, the “Binding activity with human PD-L1” value (HEK293T/hPD-L1) is reported as “good binding activity” and the “Blocking of human PD-1/PD-L1 binding” value [6] is reported as “effectively block”.

B6: h_Nb2_G101Y: affinity-matured h_Nb2 VHH, SEQ ID NO: 112 (protein)
VHH: B5 VHH with G102Y
modifications: h_Nb2_G101Y
B6 was tested, and the Increased relative affinity (human PD-L1) was 8.4837.
